For data set [1] the following is noted: in vivo; cited from earlier work.
The conditions of data set [2]: delivered together with deoxycholate; cited from earlier work.
The test system of data set [3] is salmonids. The settings on record: in vivo; cited from earlier work.
Data set [4] has as its system rainbow trout. Put plainly: Growth enhancement, intraperitoneal bST. Format: in vivo, Oncorhynchus mykiss. The settings on record: IP 20 μg bST/g live body weight weekly for 6 weeks. As for the experimental part: Intraperitoneal (IP) administration dose per fish weekly was 20 μg bST/g live body weight for 6 weeks.
The test system of data set [5] is proteolytic enzyme. Put plainly: In vitro proteolytic enzyme inhibition (casein digestion by intestinal enzyme extract). Format: biochemical, rainbow trout. Conditions: increasing level of inhibitor inclusion; FIGS. 5-12. On the procedure:
• 1. Centrifuge Sorvall model • 2. Bench-top blender • 3. Dissecting material (scissors) • 4. Centrifuge bottle • 5. Disposable cuvettes for spectrophotometer • 6. Microcentrifuge tubes 1.5 ml • 7. Spectrophotometer • 8. Vortexer • 9. Microplates reader from Biorad • 10. 50 mM Tris-HCl pH=7.5 • 11. Commassie blue staining solution • 12 BSA (1 mg\ml) standard solution • 13 TCA 20% • 14. Rainbow trouts pancreatic and duodenal tissues • 15.0.5% casein in 50 mM Tris-HCl pH=9 • 16.50 mM Tris-HCl+CaCl2 10 mM pH=7.5 Enzyme Extract • 1. Rainbow trout were weighed and sacrificed. • 2. Dissection was performed to remove the proximal small intestine from the fish. • 3. After weighing, the tissues were homogenised in 50 mM Tris-HCl ph=7.5 (1:10 w\v). • 4. Centrifuge at 16000×g for 30 min at 4° C. • 5. Keep the supernatant. Aliquot and store them at −20 C for further use. • 6. Perform Commassie assay to measure the amount of protein present in the enzyme extract. Commassie Blue Stain Protocol • 1. Weigh 160 mg of BSA in 10 ml of […] Tris-HCl pH=7.5. • 2. […] Read at 655 nm with the microplate reader from Biorad. […] Centrifuge at 12000×g for 5 min and read at 280 nm. […] Centrifuge at 12000×g for 5 min and read at 280 nm. […] Centrifuge at 12000×g for 5 min and read at 280 nm. […] Centrifuge at 12000×g for 5 min and read at 280 nm. […] Centrifuge at 12000×g for 5 min and read at 280 nm. […]

As to horseradish peroxidase, the “time to transport to the circulation after oral administration” value in data set [1] is given as no more than 1 h. “recombinant human GH: recombinant human growth hormone”: the “enhancement of oral absorption” value in data set [2] is listed as no more than 1000 fold.

B1: bovine GH: bovine growth hormone (protein, UniProt P01246 27-217, looked up)
Somatotropin: AFPAMSLSGLFANAVLRAQHLHQLAADTFKEFERTYIPEGQRYSIQNTQVAFCFSETIPAPTGKNEAQQKSDLELLRISLLLIQSWLGPLQFLSRVFTNSLVFGTSDRVYEKLKDLEEGILALMRELEDGTPRAGQILKQTYDKFDTNMRSDDALLKNYGLLSCFRKDLHKTETYLRVMKCRRFGEASCAF
B1: the “increase in growth rate” value in data set [3] is on record as “two to three-fold”.

B2: recombinant bST: recombinant bovine somatotropin (Monsanto Co.) (protein, UniProt P01246 27-217, looked up)
Somatotropin: AFPAMSLSGLFANAVLRAQHLHQLAADTFKEFERTYIPEGQRYSIQNTQVAFCFSETIPAPTGKNEAQQKSDLELLRISLLLIQSWLGPLQFLSRVFTNSLVFGTSDRVYEKLKDLEEGILALMRELEDGTPRAGQILKQTYDKFDTNMRSDDALLKNYGLLSCFRKDLHKTETYLRVMKCRRFGEASCAF
With B2, the body weight gain result in data set [4] is reported as “significantly induces increased body weight gain”.

B3: lyophylized ovalbumin: individual protease inhibitor component of the Oralject cocktail (protein, UniProt P01012 2-386, looked up)
Ovalbumin: GSIGAASMEFCFDVFKELKVHHANENIFYCPIAIMSALAMVYLGAKDSTRTQINKVVRFDKLPGFGDSIEAQCGTSVNVHSSLRDILNQITKPNDVYSFSLASRLYAEERYPILPEYLQCVKELYRGGLEPINFQTAADQARELINSWVESQTNGIIRNVLQPSSVDSQTAMVLVNAIVFKGLWEKAFKDEDTQAMPFRVTEQESKPVQMMYQIGLFRVASMASEKMKILELPFASGTMSMLVLLPDEVSGLEQLESIINFEKLTEWTSSNVMEERKIKVYLPRMKMEEKYNLTSVLMAMGITDVFSSSANLSGISSAESLKISQAVHAAHAEINEAGREVVGSAEAGVDAASVSEEFRADHPFLFCIKHIATNAVLFFGRCVSP
Take B3: the “in vitro proteolytic enzyme inhibition” value in data set [5] is on record as “affect to differing degrees”.

B4: spray-dried ovalbumin: individual protease inhibitor component of the Oralject cocktail (protein, UniProt P01012 2-386, looked up)
Ovalbumin: GSIGAASMEFCFDVFKELKVHHANENIFYCPIAIMSALAMVYLGAKDSTRTQINKVVRFDKLPGFGDSIEAQCGTSVNVHSSLRDILNQITKPNDVYSFSLASRLYAEERYPILPEYLQCVKELYRGGLEPINFQTAADQARELINSWVESQTNGIIRNVLQPSSVDSQTAMVLVNAIVFKGLWEKAFKDEDTQAMPFRVTEQESKPVQMMYQIGLFRVASMASEKMKILELPFASGTMSMLVLLPDEVSGLEQLESIINFEKLTEWTSSNVMEERKIKVYLPRMKMEEKYNLTSVLMAMGITDVFSSSANLSGISSAESLKISQAVHAAHAEINEAGREVVGSAEAGVDAASVSEEFRADHPFLFCIKHIATNAVLFFGRCVSP
As to B4, in data set [5], the “in vitro proteolytic enzyme inhibition” value is given as “affect to differing degrees”.

Source of the values: patent publication US20050175724A1, “Composition for modulating a physiological reaction or inducing an immune response” (priority 2002, published 2005).
